The values below are quoted from earlier work in publication PMC7484323 (Molecular pharmaceutics, 2020).

This data set deals with B16/F1 melanoma. As to conditions: 2 h post-injection.

Take “hydrazinonicotinamide (HYNIC)-GGNle-CycMSHhex (sidechain bridge or staple) [99mTc(EDDA)-HYNIC-GGNle-CycMSHhex]”: the “kidney (renal) uptake” value was 7.52 ± 0.96 %ID/g and the liver uptake is given as 0.52 ± 0.05 %ID/g. The tumor uptake (B16/F1 melanoma) was 14.14 ± 4.90 %ID/g.
